Test results from US20250043290A1, “RNA SEQUENCES THAT INDUCE FLUORESCENCE OF SMALL MOLECULE FLUOROPHORES, MOLECULAR COMPLEXES, SENSORS, AND METHODS OF USE THEREOF” (CORNELL UNIVERSITY, priority 2021, published 2025).
Marks after values point to notes of the source that are not given here. Values belong to the molecule of their own block, whether it stands above or below them.

What was measured:
[1] = Photophysical properties of fluorophores and RNA-fluorophore complexes (Squash study); type: physicochemical
Experimental: All RNAs used for in vitro studies (except the initial hits from SELEX and the DE2-6 mutants) were purified using 8% denaturing PAGE (7M urea) and eluted in 0.3 M NaOAc (pH 5.2) overnight. The RNA was ethanol precipitated and quantified using absorbance in a NanoDrop 2000 spectrometer. All in vitro RNA properties were measured in 40 mM HEPES-KOH (pH 7.4), 100 mM KCl, 0.5 mM MgCl2 buffer unless specified.
Absorption, excitation, and emission spectra were measured using conditions where the RNA is in excess and the fluorophore is limiting to ensure that no free fluorophore contributes to the absorbance or fluorescence signal (FIGS. 7A-7D).
All quantum yields were determined by comparing each RNA-fluorophore complex with Broccli-DFHBI-1T or Corn-DFHO. All measurements for quantum yield were taken in the presence of excess RNA (10 μM final) compared to the fluorophores (0.2 μM final) to avoid interference from unbound fluorophore. The integral of the emission spectra for each Squash-fluorophore complex was compared with the corresponding integrals for Broccoli or Corn to calculate the quantum yield.

HEK293T cells = experiment: RNA assemblies of multivalent Corn or Beetroot in cells; type: cell-based; conditions: circular RNA, means±s.d.
Experimental: FIGS. 33A-33C provide the dissociation constant (Kd) of Beetroot homodimer. […] These RNAs were incubated at 20° C. for 12 hours and then analyzed using non-denaturing gel electrophoresis (FIG. 33A). The fraction of Beetroot monomer (FIG. 33B) and Beetroot dimer (FIG. 33C) were quantified after SYBR Gold staining. […] The RNA band marked with an asterisk (*) reflects an RNA side product from in vitro transcription. The same side product band was also observed in FIGS. 27B-27C. Quantification shown in […] is based on two independent experiments. FIG. 33D are images showing genetic encoding of simple macromolecular RNA assemblies in cells using Corn when circular RNAs containing 3 and 5 copies of Corn were expressed in HEK293T cells. Clusters of these Corn-containing RNAs were observed as large intracellular puncta. Data shown here is a representative image from three independent cell cultures. Scale bar, 20 μm. FIG. 33E is a graph showing the quantification of the fraction of Corn and Beetroot in the cell that accumulates in puncta. As the valency of Corn increases from three to five, the fraction of Corn participating in the RNA assembly increases from 28±12% to 57±14%. Compared to 5× Corn, a fraction of 27±11% of 5× Beetroot are participating in the Beetroot RNA assembly. Values are means±s.d. FIG. 33F is a graph showing quantification of RNA assembly size in cells. Shown are the size distribution of RNA assemblies created using the indicated multivalent Corn or Beetroot RNA. As the valency of Corn increases from three to five, an increase in the median RNA assembly size was noticed from 0.88±0.37 μm to 1.0±0.54 μm. Compared to 5× Corn, 5× Beetroot assembly has a size of 0.68±0.25 μm. Values are means±s.d.
For to live-cell fluorescence imagining experiments, HEK293T cells were seeded into 35-mm imaging dishes precoated with poly-D-lysine (Mattek Corporation, P35GC-1.5-14C) and mouse laminin I (Cultrex, 3401-010-02) with a cell density of 4.5×10^5 cells per dish. On the next day, HEK293T cells were transfected with DNA plasmids as indicated in figures with fluorescence imaging experiments using FuGENE HD. Transfections were performed according FuGENE HD manufacturer's instructions. HEK293T cells were then cultured for two days before imaging.
Prior to imaging experiments, HEK293T cells were incubated with 1 μl of Hoechst 33342 (Thermo Fisher Scientific, H3570) per 2 ml of imaging media (phenol red-free Dulbeco's modified Eagle's medium (Thermo Fisher Scientific 31053-028) supplemented with 10% fetal bovine serum (Corning 35-010-CV), 100 U ml-1 of penicillin and […] of streptomycin, 1× GlutaMAX (Thermo Fisher Scientific, 35050-061) and 1 mM sodium pyruvate (Thermo Fisher Scientific, 11360-070)). For imaging experiments of RNA-fluorophore complex, HEK293T cells were incubated with imaging media supplemented with a final concentration of 10 μM fluorophore (DFHO or DFAME) and 5 mM MgCl2 for one hour prior to imaging.
For all imaging experiments, an epifluorescence inverted microscope (Nikon Eclipse TE2000-E) was used equipped with a CoolSnap HQ2 CCD camera and a 130-W Nikon mercury lamp. The microscope and camera were controlled using the NIS-Elements Advanced Research software (Nikon). Cells were imaged with a 60× oil objective with a numerical aperture of 1.4 (Nikon) at 37° C. A FITC filter cube (with excitation filter 470±20 nm, dichroic mirror 495 nm (long pass) and emission filter 525±25 nm) was used for imaging GFP-N-peptide. A YFP filter cube (with excitation filter 500±12 nm, dichroic mirror 520 nm (long pass) and emission filter 542±13.5 nm) was used for imaging Corn-DFHO complex. A tetramethylrhodamine filter cube (with excitation filter 560±20 nm, dichroic mirror 585 nm (long pass) and emission filter 630±37.5 nm) was used for imaging mCherry-MCP and Beetroot-DFAME complex.

[2] = 40 mM HEPES-KOH (pH 7.4), 100 mM KCl, 0.5 mM MgCl2

- Emission maximum [1, 2]: 495 nm
- Excitation maximum [1, 2]: 426 nm
- Fluorescence quantum yield ([1]; compared with Broccoli-DFHBI-1T or Corn-DFHO): 0.00098
- Extinction coefficient ([1]; free DFHBI-1T, at 452 nm): 19,900* M^−1cm^−1
- Brightness (extinction coefficient × quantum yield) ([1]; relative to Broccoli): 0.12
Molecule: CC1=N/C(=C\c2cc(F)c(O)c(F)c2)C(=O)N1CC(F)(F)F [DFHBI-1T, (Z)-4-(3,5-difluoro-4-hydroxybenzylidene)-2-methyl-1-(2,2,2-trifluoroethyl)-1H-imidazol-5(4H)-one]

B1: 5× Corn: circular RNA containing five Corn monomers, same as 5X Corn-MS2, SEQ ID NO: 101 (nucleic acid)
chain: AACCAUGCCGACUGAUGGCAGUACCGUAGGCGAAUUCUUGCCAUGUGUAUGUGGGAGGCCCGGAUAGCUCAGUCGGUAGAGCAGCGGCCGCGCGAUUCGAGGAAGGAGGUCUGAGGAGGUCACUGAAUCGCGCGGCCGCGGGUCCAGGGUUCAAGUCCCUGUUCGGGCCUCCCACAUACUCUGAUGAUCCAAAACUGCCCGAGGAUCAUUCAUGGCAAACUCGACGUUCGUCAGACUCCUCGCGAUGUCUAUGCGGGAGGCCCGGAUAGCUCAGUCGGUAGAGCAGCGGCCGCGCGAUUCGAGGAAGGAGGUCUGAGGAGGUCACUGAAUCGCGCGGCCGCGGGUCCAGGGUUCAAGUCCCUGUUCGGGCCUCCCGCAUAGUCUGAUCAUCCAAAACUGCCCGAGGGGAUGAUUCAUCGCGAAUCGCGACGAUCGUCACUACCGGUUCACUUUGUAGACCAGGCUGGUGUACAACUUGCGACUUUGCCAUGUGUAUGUGGGAGGCCCGGAUAGCUCAGUCGGUAGAGCAGCGGCCGCGCGAUUCGAGGAAGGAGGUCUGAGGAGGUCACUGAAUCGCGCGGCCGCGGGUCCAGGGUUCAAGUCCCUGUUCGGGCCUCCCACAUACUCUGAUGAUCCACGCGUAACAUGAGGAUCACCCAUGUCGAGGUACCAUCAUUCAUGGCAAAGUCGCAAGUAUCGGUCAACCUAGUGGGCCCAGUGACGAUCGUCGCCCAUCGCCUUGUGUCUGUUGGAGGCCCGGAUAGCUCAGUCGGUAGAGCAGCGGCCGCGCGAUUCGAGGAAGGAGGUCUGAGGAGGUCACUGAAUCGCGCGGCCGCGGGUCCAGGGUUCAAGUCCCUGUUCGGGCCUCCAACAGACUCUGACGAUCCAAAACUGCCCGAGGGGAUCGUUCAAGGCGAGAGCUCGUCUGACGAACGUCGAACUCGCCGUGUGUGUGUAGGAGGCCCGGAUAGCUCAGUCGGUAGAGCAGCGGCCGCGCGAUUCGAGGAAGGAGGUCUGAGGAGGUCACUGAAUCGCGCGGCCGCGGGUCCAGGGUUCAAGUCCCUGUUCGGGCCUCCUACACACUCUGACGAUCCAAAACUGCCCGAGGGGAUCGUUCACGGCGAACUCACGUCGGUGGAGCUAGCGCCUACGGUACUGCCAUCAGUCGGCGUGGACUGUAG
modifications: circular
- Fraction of RNA in the cell that accumulates in puncta (HEK293T cells): 57±14%
- RNA assembly size (HEK293T cells): 1.0±0.54 μm

B2: 3× Corn: circular RNA containing 3 copies of Corn, SEQ ID NO: 100 (nucleic acid)
chain: AACCAUGCCGACUGAUGGCAGUACCGUAGGCGAAUUCUUGCCAUGUGUAUGUGGGAGGCCCGGAUAGCUCAGUCGGUAGAGCAGCGGCCGCGCGAUUCGAGGAAGGAGGUCUGAGGAGGUCACUGAAUCGCGCGGCCGCGGGUCCAGGGUUCAAGUCCCUGUUCGGGCCUCCCACAUACUCUGAUGAUCCAAAACUGCCCGAGGAUCAUUCAUGGCAAACUCGACGUUCGUCAGACUCCUCGCGAUGUCUAUGCGGGAGGCCCGGAUAGCUCAGUCGGUAGAGCAGCGGCCGCGCGAUUCGAGGAAGGAGGUCUGAGGAGGUCACUGAAUCGCGCGGCCGCGGGUCCAGGGUUCAAGUCCCUGUUCGGGCCUCCCGCAUAGUCUGAUCAUCCAAAACUGCCCGAGGGGAUGAUUCAUCGCGAAUCGCGACGAUCGUCACUACCGGCGUCUGACGAACGUCGAACUCGCCGUGUGUGUGUAGGAGGCCCGGAUAGCUCAGUCGGUAGAGCAGCGGCCGCGCGAUUCGAGGAAGGAGGUCUGAGGAGGUCACUGAAUCGCGCGGCCGCGGGUCCAGGGUUCAAGUCCCUGUUCGGGCCUCCUACACACUCUGACGAUCCAAAACUGCCCGAGGGGAUCGUUCACGGCGAACUCACGUCGGUGGAGCUAGCGCCUACGGUACUGCCAUCAGUCGGCGUGGACUGUAG
modifications: circular
- Fraction of RNA in the cell that accumulates in puncta (HEK293T cells): 28±12%
- RNA assembly size (HEK293T cells): 0.88±0.37 μm

B3: 5× Beetroot: circular RNA comprising 5× Beetroot fused to boxB, SEQ ID NO: 102 (nucleic acid)
chain: AACCAUGCCGACUGAUGGCAGUACCGUAGGCGAAUUCUUGCCAUGUGUAUGUGGGAGGCCCGGAUAGCUCAGUCGGUAGAGCAGCGGCCGGUUAGGCAGAGGUGGGUGGUGUGGAGGAGUAUCUGUCCGGCCGCGGGUCCAGGGUUCAAGUCCCUGUUCGGGCCUCCCACAUACUCUGAUGAUCCAAAACUGCCCGAGGAUCAUUCAUGGCAAACUCGACGUUCGUCAGACUCCUCGCGAUGUCUAUGCGGGAGGCCCGGAUAGCUCAGUCGGUAGAGCAGCGGCCGGUUAGGCAGAGGUGGGUGGUGUGGAGGAGUAUCUGUCCGGCCGCGGGUCCAGGGUUCAAGUCCCUGUUCGGGCCUCCCGCAUAGUCUGAUCAUCCAAAACUGCCCGAGGGGAUGAUUCAUCGCGAAUCGCGACGAUCGUCACUACCGGUGACUCGCUAUCGGUUAUGGCAUGUACAACUUGCGACUUUGCCAUGUGUAUGUGGGAGGCCCGGAUAGCUCAGUCGGUAGAGCAGCGGCCGGUUAGGCAGAGGUGGGUGGUGUGGAGGAGUAUCUGUCCGGCCGCGGGUCCAGGGUUCAAGUCCCUGUUCGGGCCUCCCACAUACUCUGAUGAUCCACGCGUACAUUGGCCCUGAAAAAGGGCAAGCGAGGUACCAUCAUUCAUGGCAAAGUCGCAAGUAUCGGUCAACCUAGUGGGCCCAGUGACGAUCGUCGCCCAUCGCCUUGUGUCUGUUGGAGGCCCGGAUAGCUCAGUCGGUAGAGCAGCGGCCGGUUAGGCAGAGGUGGGUGGUGUGGAGGAGUAUCUGUCCGGCCGCGGGUCCAGGGUUCAAGUCCCUGUUCGGGCCUCCAACAGACUCUGACGAUCCAAAACUGCCCGAGGGGAUCGUUCAAGGCGAGAGCUCGUCUGACGAACGUCGAACUCGCCGUGUGUGUGUAGGAGGCCCGGAUAGCUCAGUCGGUAGAGCAGCGGCCGGUUAGGCAGAGGUGGGUGGUGUGGAGGAGUAUCUGUCCGGCCGCGGGUCCAGGGUUCAAGUCCCUGUUCGGGCCUCCUACACACUCUGACGAUCCAAAACUGCCCGAGGGGAUCGUUCACGGCGAACUCACGUCGGUGGAGCUAGCGCCUACGGUACUGCCAUCAGUCGGCGUGGACUGUAG
modifications: circular
- Fraction of RNA in the cell that accumulates in puncta (HEK293T cells): 27±11%
- RNA assembly size (HEK293T cells): 0.68±0.25 μm
